Experiment: label from the status in PepcDB records

| Sequence | protein production |
| --- | --- |
| SSAHMSGLEIMDEDQLIKDVLDKFLNCHEQTYDEEFLNTFTHLSQDLLLLPGEVEQDVSTSIPSCIPFVAQPPTCEVKPKPSVKRMDKQTEEILGDEVQLFSLDEEFDYDNVMLTSKFSPAEIENIKELCKQQKRKDTSPDLEKSCD | failed |
| MGTEAEQPSPPAQQQDQENPPLCKAQNPKPARLYRFVLIFVAGSLAAWTFHALSSTNLVWKLRQLHHLPTAHYLQTRDEFALYSVEELNAFKEFYDKSVSDSVGASYTEAEQTNIKEALGALRMAQDLYLAGKDDKAARLFEHALALAPRHPEVLLRYGEFLEHNQRNIVLADQYYFQALTISPSNSEALANRQRTADVVQSLDERRLESLDSKRDALSAIHESNGALRRAKKEAYFQHIYHSVGIEGNTMTLAQTRSILETRMAVDGKSIDEHNEILGMDLAMKYINASLVQKIDITIKDILELHRRVLGHVDPIEGGEFRRNQVYVGGHIPPGPGDLALLMQRFERWLNSEHSSTLHPVNYAALAHYKLVHIHPFVDGNGRTSRLLMNTLLMRAGYPPVIIPKQQRSKYYHFLKLANEGDIRPFVRFIADCTEKTLDLYLWATSDLPQQIPMLIQTESEAGERLAQMQSPNVAQRSSILEFYESGSGDLP | failed |
| MENSLNQNKVWGWGELALMYFPNISQKSATMQLLKWIRVSDELVGQLEKSGWHPGKKYLTPRQKDYIVGHLGEP | failed |
| MNDIVEFLKVFIPLFIVIDPFGSLVLFTSMTYNFNEGEKMRATKDAVVYGGIILVMFALAGQFIIYFFGISIEALEMAGGVILLLMAVEMIMEGNRPKTSGSEVTTDLDIGIVPFATPLLAGPGAISLVIILMKGPLIDKIFTFVSIGIIFLMVYIFFKEASIVSKFIGNKAMKAVSRIFGLLLAGFAIQYFIDAVTALFLVH | failed |
| MNIILNVFLIFVSAILTKLFALFAQHTKLIDIPNERNLHSRPTVRGGGLVFIGLSLFCWFFICNSQFFLTLDQFIFSIAIIFIATISFIDDFYNLSVTIRFFFQCLIAFLIVIFILPSQLDFGLFLFENTYLIAFFLFFAVIWAINHFNFMDGLDGFCASQAIFLLAAYALFFNSAGSLIYQDFCLILISSLAGFLIFNFPPAKIFMGDVGSASLGLITFFIAIIAQKNYQIPILYWFILNSLFLFDSTVTLIRRIIKHEKWFSPHKKHAYQRLKQLGINSRFILLGQAIINGSLFLSVMFMHFQFFNLKNLIIIQLCYLSAIYFFIEKKYPME | failed |
| MAIGRLGYLVRGAWAGGVMLLAAGSAWAAPNWPLAPYSYYAQQQSLSDVLREFAAGFSLALQQGKGVQGVVNGRFNARTPTEFIERLSGIYGFNWFVHAGTLYVSRTSDVVTRAVDAAGASPSALRQALLQLGILDERFGWGELPAQGVAMVSGPPAYVALVEQAVAALPKGAGNQQVAVFRLKHASVSDRVIRYRDQQVVTPGMATMLRQLILGAGPGNDAALAAVAAPLRENPPVFGDAAADGNAPLAGAAQAAGRRLSEPSVQADTRLNALIVQDIPERMPIYRALIEQLDVPSTLIEIEAMIVDVNTDLVNELGVTWGAQIGTTSLGYGDLGLRPGNGLPVDGAAADLAPGTLGISVSTRLAARLRALESDGQANILSQPSILTADNLGAMIDLSDTFYIRTLGERVATVTPVTVGTSLRVTPRYIAAKGGRQVELAIDIEDGRVLQEYPIDGLPRVRKSSISTLAVVGDEQTLLIGGYNNRRDEEQVEKVPLLGDIPGLGFLFSSKSRAVQRRERLFLIRPRVVAIEGKPVFSPVAGTSQVFMSTGWGGHGSSLSIAPGEGGHTQVRHDARAGRPVRLVPDSLHVEYGEAGEASP | failed |
| MDYCYTGDTHEKLFAAYRADEEPFPTQTQMEFPRREHRRPEIDILKRLFFPTCWNAAELVRDELAVLDRLDTLGGLFFAGIRPYSGSDPAETVDAVIDQLPAVRTRLKKDVEAAFKGDPAAKTYMEIIRSYPGFMAILVQRVAHTLYEAGASEYARELTEYAKTETGIDIHPGAEIGDHFFIDHGTGVVIGETTTVGEWVRLYQDVTLGALHFEADESDEHRLKKGYKRHPDIGDHVVIGAGTKVLGAISVGDHVSIGANSWVTDDIPDDTKVYVTDHPTQERKRTN | failed |
| MITRSEIFEYAEKTFGAKPDYPFKTYPHYAILRHLDDQKWFGLVMNVPKDKLGLEGEGDVDVIDIKCHPDKVHDLKIKAGFLPAYHMNKEHWLTAVLDGSVTKEEVFSLLAESYELTK | failed |
| MVQTKRYAGLTAANTKKVAMAAPMFSIIIPTLNVAAVLPACLDSIARQTCGDFELVLVDGGSTDETLDIANIFAPNLGERLIIHRDTDQGVYDAMNRGVDLATGTWLLFLGADDSLYEADTLARVAAFIGEHEPSDLVYGDVIMRSTNFRWGGAFDLDRLLFKRNICHQAIFYRRGLFGTIGPYNLRYRVLADWDFNIRCFSNPALVTRYMHVVVASYNEFGGLSNTIVDKEFLKRLPMSTRLGIRLVIVLVRRWPKVISRAMVMRTVISWRRRR | failed |
| MVDADGIYYLGPEGSFTHEAASLFKGKDLKAESTISLVFKRVYERESSIGIVPIENSLEGPVNETLDNLYNYDNIYVIGEIEKKIELVLAARSDNLSQIKRIYSHPHAFNEAREKLKELGFNEYIPVESTSKAAKIVSQDSEAAAICSNFAAKLYNLKVLITISSHNNYTRFIVLSKEMNSNGNKSMILFTVPHKPGALYKVLQVFYEYNINISMIYSRPLKSIPWQYYFYLEYEGGISNREFIEKLVKSTSVLKIKGSFSKLNNDPGF | failed |
| MGFADFFKNFKINKLRTAPSKEEQPSHWVKCPKCYALMYHKEVFSKYSVCLKCHYHFRMKAAERIEFLCDVGSFEEFDKHLRPNDPLNFVDKESYKQRIKKYEKRTNRPSSVISGEAKINRMPLQIVVFDFSFMGGSLGSVEGEKIVRAINRAVAKREALLIVSASGGARMQESTYSLMQMAKTSAALNRLSEAKLPFISLLSDPTYGGVSASFAFLGDLIIAEPGAMIGFAGPRVIKQTIGADLPEGFQTAEFLLEHGLIDMIVHRKDLKKTLSDLIAMMTHKTSKIF | failed |
| MSLTSVVFLNPGNSTETFWVSYSQFMQAAARDLGLDLRILYAERDPQNTLQQARELFQGRDKPDYLMLVNEQYVAPQILRLSQGSGIKLFIVNSPLTLDQRELIGQSRQNYSDWIGSMVGDDEEAGYRMLKELLHKLGPVPAGHGIELLAFSGLKVTPAAQLRERGLRRALAEHPQVHLRQLVYGEWNRERAYRQAQQLLKRYPKTQLVWSANDEMALGAMQAARELGRKPGTDLLFSGVNSSPEALQALIDGKLSVLEAGHFTLGGWALVALHDDALGLDARRLGGPDWQLSLFQALTPAQARQLLRLGDQVGTRVDFRGLSAQGKPDSYRYPFGLQLLLREGHHHHHH | not failed |
| MSSSSDAPLVATRWVEIGLALFTAALGAIVMYGSQDIGIGWGDSGPEAGYFPFYIGLLLSAASLGNLLLALCRWRALGTSFVARTAFRRVLAVFLPIAAYVAAMPFAGIYLASALFIAWFMWRDRSRDKPYGVPLIVTLSCGAALASYLVFAVWFKVPLDAGILVDLAAFVGSARP | failed |
| KAEAEQNWWEGPPQDLSVHLWYAGPMERAGAESILANRSDGTFLVRQRVKDAAEFAISIKYNVEVKHIKIMTAEGLYRITEKKAFRGLTELVEFYQQNSLKDCFKSLDTTLQFPFKEPEKRTISR | not failed |
| TNLAALSLDSLVAPDTPIQFDIISPVCEDQPGQAKAFGQGGRRTNPFGESGGSTKSETEDSILHQLFIVRFLGSMEVKSDDHPDVVYETMRQILAARAIHNIFRMTESHLLVTCDCLKLIDPQTQVTRLTFPLPCVVLYATHQENKRLFGFVLRTSSGRSESNLSSVCYIFESNNEGEKICDSVGLAKQIAL | failed |
| MGSSHHHHHHSSGRENLYFQGMNIGRLRDRITIQTLKQTRDITGEILETWEDGHTLWASVNMVSSKEAISSGAELAIGTVRIWIRYRKDINATSRIKVSTGPLAGRVLNIIGQPLPDAARTRLEILCREGAEK | not failed |
| MAPRYDTLFYDGSCPLCAREIRTLRRLQTGNLIFADIHEQNPSNQQLPSREQLLRRLHLMSWNGEWVTGLHANVRAWSHTRFGWLFKPLLWPVIHPIASRIYETWADKRYGRKYACAMGHENSCPPGT | failed |
| MATPPFDPSLSPLKTVAVIGLGTMGTGIAEVLARAGREVVGIDISEAAAGHAVTALEASTARAVQRERLTEQERGDILARFRTFTDLQAAADADLVIEVTPESYEIKQQVLRALDGIVRADTILATGTNALSVTRLAADSAHPERVLGLHFFNPAPAMKLVEVVSSVLTAPTAVAAVTNLALDLGKEPVAVGDRPGFVADGLLFGYLNQAAAMYEAKYASREDIDAAMKLGCGLPMGPLALLDLIGVDTARTVLEAMYAESRDRLHAPAPILKQLSEAGLTGRKSGRGFYSYDEPGSATVVRDALTPLSGGPGEQGRTVRSVGVAGSGTMASGIAEVFAKAGYEVVLAARSEEKAQTAKARIGKSLSRSVDKGRLTAEAAAETLDRITPAGSYDAFADVDLALEAVAEDLEIKQQLFATFDKVCKPGAILATTTSSLPVVACARATSRPQDVIGMHFFNPAPAMKLVEVVRTVLTGDDVHATVREVCAKIRKHPVDCGDRAGFIVNALLFPYLNNAIKMVQEHYATLDDIDAAMKLGGGYPMGPFELLDVVGLDVSLAIEKVLHREFRDPGLAPAPLLEHLVAAGCLGRKTGRGFREYAKR | failed |
| EHIARRKAGDAAERLVKLIPAFCHHMPDYPDTQETCEAAVVKLKAGDIVLVKPGETIPVDGTVLEGSSAVNESMLTGESLPVAKMPSEKVTAGTLNTQSPLIIRTDRTGGGTRLSHIVRLLDRALAQKPRTAELAEQ | failed |
| MLTYYLKTEIQLLFRKKVYLVLSILVPLALYLLFTSILDLPEEAKKPFYKEYMYSMTAFSLSSFCLMQFPIDLINEKTTGWYKNLMRTPLQSHQYYMAKVFKMMFQFILAILLIFIVAHFMKGVEMSTSDWLLSGLILWIGASTFLSVGVLISQINEIQKASSIGNILYLSLAILGGLWFPVSQFPEWMRKIAYVTPTYHLKQVAYEIGKGGTLDYLSLFVLVGYSILFLVVALIIQKRRDVDI | failed |
| MKMNNTKEYSIRTPSLGNLPPGTTGTCCPPPLVFPLLPLSPPPSPPPSPSSPPRLPPPFPALFPPEPPLPPRFELPPPLFPPPPLPRLPPPLLPPPEEPPREPPPPPPPPEEPPPPASCLRTKSPENGIVSTVK | failed |
| MRKAYLMESIQPWIEKFIKQAQQQRSQSTKDYPTSYRNLRVKLSFGYGNFTSIPWFAFLGEGQEASNGIYPVILYYKDFDELVLAYGISDTNEPHAQWQFSSDIPKTIAEYFQATSGVYPKKYGQSYYACSQKVSQGIDYTRFASMLDNIINDYKLIFNSGKSVIPPMSKTESYCLEDALNDLFIPETTIETILKRLTIKKNIILQGPPGVGKTFVARRLAYLLTGEKAPQRVNMVQFHQSYSYEDFIQGYRPNGVGFRRKDGIFYNFCQQAKEQPEKKYIFIIDEINRANLSKVFGEVMMLMEHDKRGENWSVPLTYSENDEERFYVPENVYIIGLMNTADRSLAVVDYALRRRFSFIDIEPGFDTPQFRNFLLNKKAEPSFVESLCQKMNELNQEISKEATILGKGFRIGHSYFCCGLEDGTSPDTQWLNEIVMTDIAPLLEEYFFDDPYKQQKWTNKLLGDS | failed |
| MSSNNINSIISKIQQKNTATVITVGNYKGGAGKTTNVVLLAYKLAKKGLKVCVLDLDPQSNATKSLLLTKSSLYQDEVVTIEKTLMTGISEKNLDGLEVKIMDNLYLLPSYIDFEDFPKYLYKNTSNQREEDYYLKNIFTPLQGKYDIVLIDVPPMSKAVTRNAVICSDYVLISLQTHERSLSGAESYVEELNKLHNEYDLDLEVVGVLPVIHKNNGSVDQYVMEVAKETFGEDNLFENVVPQMERIKRFDVNGITDKDRHDQKVLNLYDKVSDELLDRINYFEEEKEGAING | not failed |

From a protein production outcome set (Wang et al. 2014)
